Experimental findings from IntAct's records for PubMed 31515488 are described below.

The chains are these.
B1: Germ cell-less protein-like 1 (Homo sapiens), Q96IK5 (parent)
chain: MGSLSSRVLRQPRPALAQQAQGARAGGSARRPDTGDDAAGHGFCYCAGSHKRKRSSGSFCYCHPDSETDEDEEEGDEQQRLLNTPRRKKLKSTSKYIYQTLFLNGENSDIKICALGEEWSLHKIYLCQSGYFSSMFSGSWKESSMNIIELEIPDQNIDVEALQVAFGSLYRDDVLIKPSRVVAILAAACLLQLDGLIQQCGETMKETVNVKTVCGYYTSAGTYGLDSVKKKCLEWLLNNLMTHQNVELFKELSINVMKQLIGSSNLFVMQVEMDIYTALKKWMFLQLVPSWNGSLKQLLTETDVWFSKQRKDFEGMAFLETEQGKPFVSVFRHLRLQYIISDLASARIIEQDAVVPSEWLSSVYKQQWFAMLRAEQDSEVGPQEINKEELEGNSMRCGRKLAKDGEYCWRWTGFNFGFDLLVTYTNRYIIFKRNTLNQPCSGSVSLQPRRSIAFRLRLASFDSSGKLICSRTTGYQILTLEKDQEQVVMNLDSRLLIFPLYICCNFLYISPEKKN
partner: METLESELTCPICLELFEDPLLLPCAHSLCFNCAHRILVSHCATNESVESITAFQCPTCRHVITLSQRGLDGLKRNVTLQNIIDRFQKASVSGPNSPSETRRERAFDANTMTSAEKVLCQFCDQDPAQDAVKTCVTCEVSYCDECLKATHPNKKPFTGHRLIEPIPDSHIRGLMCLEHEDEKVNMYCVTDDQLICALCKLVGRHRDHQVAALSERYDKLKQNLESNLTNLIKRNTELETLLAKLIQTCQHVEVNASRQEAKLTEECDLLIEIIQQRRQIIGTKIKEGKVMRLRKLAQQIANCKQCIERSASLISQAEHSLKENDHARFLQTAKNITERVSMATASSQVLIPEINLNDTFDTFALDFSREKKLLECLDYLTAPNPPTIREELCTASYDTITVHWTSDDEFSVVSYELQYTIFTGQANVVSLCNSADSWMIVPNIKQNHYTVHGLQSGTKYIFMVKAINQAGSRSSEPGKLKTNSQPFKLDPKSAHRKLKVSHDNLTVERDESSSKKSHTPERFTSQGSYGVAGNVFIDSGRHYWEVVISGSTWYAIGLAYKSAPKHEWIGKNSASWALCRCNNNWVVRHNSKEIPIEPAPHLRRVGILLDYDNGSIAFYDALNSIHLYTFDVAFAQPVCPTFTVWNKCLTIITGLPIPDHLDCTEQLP
B2: Ensconsin (Homo sapiens), Q14244 (parent)
chain: MAELGAGGDGHRGGDGAVRSETAPDSYKVQDKKNASSRPASAISGQNNNHSGNKPDPPPVLRVDDRQRLARERREEREKQLAAREIVWLEREERARQHYEKHLEERKKRLEEQRQKEERRRAAVEEKRRQRLEEDKERHEAVVRRTMERSQKPKQKHNRWSWGGSLHGSPSIHSADPDRRSVSTMNLSKYVDPVISKRLSSSSATLLNSPDRARRLQLSPWESSVVNRLLTPTHSFLARSKSTAALSGEAASCSPIIMPYKAAHSRNSMDRPKLFVTPPEGSSRRRIIHGTASYKKERERENVLFLTSGTRRAVSPSNPKARQPARSRLWLPSKSLPHLPGTPRPTSSLPPGSVKAAPAQVRPPSPGNIRPVKREVKVEPEKKDPEKEPQKVANEPSLKGRAPLVKVEEATVEERTPAEPEVGPAAPAMAPAPASAPAPASAPAPAPVPTPAMVSAPSSTVNASASVKTSAGTTDPEEATRLLAEKRRLAREQREKEERERREQEELERQKREELAQRVAEERTTRREEESRRLEAEQAREKEEQLQRQAEERALREREEAERAQRQKEEEARVREEAERVRQEREKHFQREEQERLERKKRLEEIMKRTRRTEATDKKTSDQRNGDIAKGALTGGTEVSALPCTTNAPGNGKPVGSPHVVTSHQSKVTVESTPDLEKQPNENGVSVQNENFEEIINLPIGSKPSRLDVTNSESPEIPLNPILAFDDEGTLGPLPQVDGVQTQQTAEVI
B3: Notch homolog 2 N-terminal-like protein A (Homo sapiens), Q7Z3S9 (parent)
chain: MCVTYHNGTGYCKCPEGFLGEYCQHRDPCEKNRCQNGGTCVAQAMLGKATCRCASGFTGEDCQYSTSHPCFVSRPCLNGGTCHMLSRDTYECTCQVGFTGKECQWTDACLSHPCANGSTCTTVANQFSCKCLTGFTGQKCETDVNECDIPGHCQHGGTCLNLPGSYQCQCLQGFTGQYCDSLYVPCAPSPCVNGGTCRQTGDFTFECNCLPETVRRGTELWERDREVWNGKEHDEN
partner: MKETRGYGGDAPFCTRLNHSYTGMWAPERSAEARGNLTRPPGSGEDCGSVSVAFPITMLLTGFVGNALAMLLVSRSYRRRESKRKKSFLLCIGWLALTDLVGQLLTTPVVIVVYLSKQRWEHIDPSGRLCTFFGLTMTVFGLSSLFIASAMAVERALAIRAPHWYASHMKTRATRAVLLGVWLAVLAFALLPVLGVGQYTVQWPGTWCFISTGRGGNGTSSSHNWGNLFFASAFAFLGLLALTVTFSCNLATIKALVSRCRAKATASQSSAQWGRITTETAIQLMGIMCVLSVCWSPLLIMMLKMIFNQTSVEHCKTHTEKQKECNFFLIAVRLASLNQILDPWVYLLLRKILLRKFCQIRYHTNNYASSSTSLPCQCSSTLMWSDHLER

One test covers variants of B1. The following applies: with tri18_human MID1, O15344.
Y61S: the “effect of a mutation on the interaction” value is on record as “with no effect”. The same measure, in the same setting: the value for K123R was “with no effect”.

In another test the parent is B2. The following applies: with ccdb1_human CCNDBP1, O95273.
Sequence of ccdb1_human CCNDBP1, O95273 (O95273 whole entry): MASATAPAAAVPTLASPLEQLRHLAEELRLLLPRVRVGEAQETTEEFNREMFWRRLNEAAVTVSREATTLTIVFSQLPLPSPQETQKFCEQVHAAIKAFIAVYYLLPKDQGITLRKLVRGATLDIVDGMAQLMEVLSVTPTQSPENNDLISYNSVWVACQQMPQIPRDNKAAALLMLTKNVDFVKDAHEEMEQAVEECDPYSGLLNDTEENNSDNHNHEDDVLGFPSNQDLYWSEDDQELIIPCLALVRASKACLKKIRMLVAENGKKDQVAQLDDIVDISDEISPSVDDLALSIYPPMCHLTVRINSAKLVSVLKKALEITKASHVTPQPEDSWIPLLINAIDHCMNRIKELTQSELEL
As to M429T, the “effect of a mutation on the interaction” value is given as “with no effect”. For the variant P649L, the “effect of a mutation on the interaction” value is “with no effect”.

Variants of B3 are the subject of the next test. The following applies: with pe2r3_human PTGER3, P43115.
As for A115T, the “effect of a mutation on the interaction” value is recorded as “with no effect”.
